Results reported in the supplement of paper PMC10567573.

B1: KCNA1 (parent)
chain: LKASMRELGLLIFFLFIGVILFSS

Variants of: B1
Experiment: protein stability index of a GFP-peptide fusion (GPS, HEK-293T) (PSI 1-6); higher = more stable
Settings: c terminus: a fixed tail appended
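Also: lentivirally expressed fusions sorted by FACS into six bins by GFP to DsRed ratio, PSI derived from sequencing read proportions per bin multiplied by bin number.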

Protein stability index: each site, then its substitutions
L15: T 3.59, H 2.11, G 2.53, C 2.37, K 2.54, W 2.7, A 2.44, R 2.01, N 3.33, M 1.7, Y 2.55, I 1.55, P 2.29, F 1.79
L21: Y 1.91, W 2.35, H 2.98, V 2.12, G 3.19, Q 3.29, P 2.86, N 2.64, D 3.39, K 1.88, C 2.43, F 3.04, R 3.21, I 2.17, T 2.68, S 3.5, M 2.32
G9: Y 2.34, W 1.54, H 1.8, A 1.75, M 2.37, K 3, I 2.18, C 1.29, T 1.72, Q 4.69, L 1.83, S 1.98, E 4.03, R 2.48, F 2.07, V 1.71, D 3.82, P 3.05
R6: S 2.88, A 3.59, H 3.36, Q 2.28, C 3.31, P 2.36, V 2.45, N 2.85, I 3.16, D 3.02, K 1.61, W 2.35, Y 3.07, L 3.12, M 3.15, T 3.38, G 2.63
I12: P 1.95, R 4.06, F 2.38, Y 3.01, G 3.16, E 3.27, H 3.35, V 1.35, W 3.17, A 1.87, Q 2.17, N 3.05, D 2.94, T 4.06, L 2.86, K 2.8, C 2.52, S 1.31, M 2.02
V19: K 4.72, G 2.85, H 4.02, S 3.99, Q 3.09, Y 1.86, N 2.33, M 2.52, T 3.34, F 1.99, W 2.1, D 2.65, I 2.27, R 2.66, L 1.59, A 2.58, P 2.51, C 1.65
I20: V 3.45, Y 2.65, T 2.4, A 3.3, K 3.18, L 1.96, F 2.32, W 2.02, C 2.75, Q 2.9, S 2.1, M 3.52, D 3.22, E 2.38
F16: A 2.14, W 2.38, K 2.35, H 3.79, Y 3.35, I 2.25, S 2.55, R 1.32, G 3.06, L 2.91, P 2.96, D 1.64, V 2.07, E 3.14, T 2.77, M 2.17
G18: P 1.86, Y 3.18, A 1.77, W 2.21, S 3.74, F 3.9, T 3.2, K 2.44, N 3.02, V 3.15, I 4.5, M 2.2, C 3.63, L 1.82, Q 2.75, D 1.87
F14: W 3.78, D 2.93, H 3.41, T 2.79, V 2.82, Y 3.01, P 4.04, R 2.41, I 2.74, C 1.95, S 3.66, A 4.15, L 2.98, E 2.74, M 2.48, N 2.85, K 2.65, G 3.88
